Laboratory results reported in patent US20180185504A1 (Regeneron, published 2018).
Where two headings read alike, the source gives them in different places.

B1: H1H6953N-DM1 (antibody, human IgG1, V domains shown)
VH: EVQLLESGGGLVQPGGTLRLSCAASGFTFSAYAMSWVRQAPGKGLEWVSSINVRAGDTYYADSVKGRFTISRDNSKNTLFLLMNSLRAEDTAAYYCAKARYSSNWGFDFWGQGTLVTVSS
VL: DIVMTQSPDSLTVSLGARTTINCQSSQTILHSSNNHNYLAWYQQKPGLPPKLLIYWSSTRESGVPDRFSGSGSGTDFTLTISSLQAEDVAIYYCQQYSNTPYTFGQGTKLEIN
modifications: DM1 conjugated through SMCC linker; attachment residues not stated
B2: H1H6762P (antibody, human IgG1, V domains shown)
VH: QVQLVESGGGVVQPGRSLRLSCAASGFTFSHYGMVWVRQPPGKGLEWVALISFDGTTKYYADSVKGRFTISRDNSKNTLYLQMNSLRAEDTAVYFCVGAIAAAAFDLWGRGTLVTVSS
VL: EIVMTQSPATLSVSPGERATLSCRASQSVSSDLAWYQQKPGQAPRLLIYSASARATGIPARFTGSGSGTDFTLTISSLQSEDFAVYYCQQYNNWPMYTFGQGTKLEIK
B3: H1H6804P (antibody, human IgG1, V domains shown)
VH: QVTLKESGPVLVKPTQTLSLTCTVSGFSLSDAGMGVSWIRQPPGKALEWLAHIFSNDGKSYSTSLKSRLTISKDTSKRQVVLTMTNMDPVDTATYYCARIRTGTYSLYLDYWGQGTLVTVSS
VL: DIQMTQSPSSLSASVGDRVTITCRASQSINSYLNWYQQKPGKAPKLLLYFASSLQSGVPSRFSGSGSGTDFTLTISSLQPEDFASYYCQESYSTPWTFGQGTKVEIK
B4: H1H6782P-DM1 (antibody, human IgG1, V domains shown)
VH: EVQLVESGGGLVQPGRSLRLSCAASGFTFDDYAMHWVRQAPGKGLEWVSGIIWNSGHIGYGDSVKGRFTISRDNAKKSLYLQMNSLRAEDTALYYCARDSGRYQSYFDYWGQGTLVTVSS
VL: DIQMTQSPSTLSASVGDRVTITCRASHIISSWLAWYQQKPGKAPKVLIFKASSLESGVPSRFSGSGSGTEFTLTISSLQPDDFATYYCQQYNTYSRTFGQGTKVEIK
modifications: DM1 conjugated through SMCC linker; attachment residues not stated
B5: H1H6958N2-DM1 (antibody, human IgG1, V domains shown)
VH: QVQLVESGGGVVQPGRSLRLSCGASGFTFRNYGMQWVRQGPGKGLEWVTLISFDGNDKYYADSVKGRFTISRDNSKNTLFLQMNSLRTEDTAVYYCARGGDFDYWGQGTLVTVSS
VL: DIQMTQSPSSLSASVGDRVTITCRASQDIRKDLGWYQQKPGKAPKRLIYAASSLHSGVPSRFSGSGSGTEFTLTISSLQPEDFATYYCLQHNSYPMYTFGQGTKLEIK
modifications: DM1 conjugated through SMCC linker; attachment residues not stated

Experiments:
[1] = target: T1, human prolactin receptor (PRLR) (human, UniProt P16471 25-622); assay: cell-based or functional assay
T1 sequence: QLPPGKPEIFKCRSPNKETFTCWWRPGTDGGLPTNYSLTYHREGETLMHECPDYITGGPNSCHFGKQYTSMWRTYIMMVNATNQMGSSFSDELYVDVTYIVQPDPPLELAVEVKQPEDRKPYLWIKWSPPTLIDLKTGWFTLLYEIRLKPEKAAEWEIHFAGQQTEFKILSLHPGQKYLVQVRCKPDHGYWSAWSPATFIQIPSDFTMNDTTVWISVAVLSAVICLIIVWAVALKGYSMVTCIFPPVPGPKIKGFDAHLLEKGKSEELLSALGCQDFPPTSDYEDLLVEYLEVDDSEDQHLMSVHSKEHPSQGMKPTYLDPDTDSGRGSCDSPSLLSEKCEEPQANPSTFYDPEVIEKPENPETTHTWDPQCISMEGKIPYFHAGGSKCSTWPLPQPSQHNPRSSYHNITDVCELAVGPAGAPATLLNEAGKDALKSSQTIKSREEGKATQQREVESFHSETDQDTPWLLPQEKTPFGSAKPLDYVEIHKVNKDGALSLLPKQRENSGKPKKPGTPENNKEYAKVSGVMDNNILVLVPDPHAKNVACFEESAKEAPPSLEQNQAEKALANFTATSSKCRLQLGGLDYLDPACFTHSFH

[2] = target: T1, human prolactin receptor (PRLR); assay: cell-based or functional assay; remark: listed apart in the source
[3] = target: T1, human prolactin receptor (PRLR); assay: cell-based or functional assay; remark: listed apart in the source
[4] = target: T1, human prolactin receptor (PRLR); assay: cell-based or functional assay; remark: listed apart in the source
[5] = target: T1, human prolactin receptor (PRLR); assay: cell-based or functional assay; remark: listed apart in the source
[6] = target: T1, human prolactin receptor (PRLR); assay: cell-based or functional assay; remark: listed apart in the source
[7] = target: T1, human prolactin receptor (PRLR); assay: cell-based or functional assay; remark: listed apart in the source
[8] = target: T1, human prolactin receptor (PRLR); assay: cell-based or functional assay; remark: listed apart in the source
[9] = target: T1, human prolactin receptor (PRLR); assay: cell-based or functional assay; remark: listed apart in the source
[10] = target: T2, human prolactin receptor (PRLR) on cells (human, UniProt P16471 25-622); assay: cell-based or functional assay
T2 sequence: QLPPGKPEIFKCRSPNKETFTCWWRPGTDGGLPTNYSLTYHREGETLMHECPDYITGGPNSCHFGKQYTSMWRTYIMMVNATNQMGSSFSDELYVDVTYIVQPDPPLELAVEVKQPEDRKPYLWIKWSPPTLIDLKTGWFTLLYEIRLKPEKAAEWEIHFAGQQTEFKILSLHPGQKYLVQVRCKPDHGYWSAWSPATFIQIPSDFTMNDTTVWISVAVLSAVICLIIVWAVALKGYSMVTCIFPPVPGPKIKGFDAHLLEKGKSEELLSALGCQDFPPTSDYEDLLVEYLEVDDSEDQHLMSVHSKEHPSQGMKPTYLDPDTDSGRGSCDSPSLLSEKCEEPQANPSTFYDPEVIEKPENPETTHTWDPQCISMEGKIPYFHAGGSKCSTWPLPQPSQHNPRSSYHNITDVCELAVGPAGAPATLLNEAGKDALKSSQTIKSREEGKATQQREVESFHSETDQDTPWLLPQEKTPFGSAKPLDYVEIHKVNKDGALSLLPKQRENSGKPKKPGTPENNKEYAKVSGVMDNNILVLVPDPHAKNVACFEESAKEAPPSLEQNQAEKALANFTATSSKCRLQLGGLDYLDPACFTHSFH

[11] = target: T3, mouse PRLR with an HA tag on HEK293 cells (mouse, UniProt Q08501 20-608); assay: FACS on HEK293/mPRLR cells
T3 construct: whole, on cells; also called HEK293/mPRLR; rodent PRLR; not shown: HA tag
T3 sequence (looked up): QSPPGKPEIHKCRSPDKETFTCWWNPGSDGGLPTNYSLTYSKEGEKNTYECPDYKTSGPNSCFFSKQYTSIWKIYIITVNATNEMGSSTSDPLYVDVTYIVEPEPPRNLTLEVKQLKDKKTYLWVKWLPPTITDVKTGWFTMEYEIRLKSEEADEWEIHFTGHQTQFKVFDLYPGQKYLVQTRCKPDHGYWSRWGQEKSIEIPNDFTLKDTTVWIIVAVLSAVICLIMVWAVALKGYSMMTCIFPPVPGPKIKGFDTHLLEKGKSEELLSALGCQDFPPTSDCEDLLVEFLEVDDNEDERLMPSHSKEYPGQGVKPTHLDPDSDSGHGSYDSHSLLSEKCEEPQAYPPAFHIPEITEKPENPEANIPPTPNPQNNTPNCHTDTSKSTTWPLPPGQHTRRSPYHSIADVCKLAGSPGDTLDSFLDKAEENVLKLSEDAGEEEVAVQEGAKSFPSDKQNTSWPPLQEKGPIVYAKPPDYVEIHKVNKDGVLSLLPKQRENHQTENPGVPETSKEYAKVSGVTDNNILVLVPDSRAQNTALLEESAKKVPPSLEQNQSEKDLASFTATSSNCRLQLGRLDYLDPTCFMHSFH

[12] = target: T1, human prolactin receptor (PRLR); assay: cell-based or functional assay; remark: listed apart in the source

Row | Binder | % Kill, T47D cells [2] | IC50, cell viability, T47D cells [2] | % Kill, MCF7/ATCC cells [3] | % Kill, MCF7/PRLR cells [3] | % Kill, PC3/hPRLR cells [3] | IC50, cell viability, MCF7/ATCC cells [3] | IC50, cell viability, MCF7/PRLR cells [3] | IC50, cell viability, PC3/hPRLR cells [3] | % Kill, MCF7/PRLR cells [4] | % Kill, MCF7 cells [4] | % Kill, T47D cells [4] | IC50, cell viability, MCF7/PRLR cells [4] | IC50, cell viability, MCF7 cells [4] | IC50, cell viability, T47D cells [4] | % Kill, PC3/PRLR cells [6] | IC50, cell viability, PC3/PRLR cells [6] | % Kill, MCF7/ATCC cells [7] | % Kill, MCF7/PRLR cells [7] | IC50, cell viability, MCF7/ATCC cells [7] | IC50, cell viability, MCF7/PRLR cells [7] | other results
1 | B1 | 100% | 1.5 nM | 70% | 80% | 83% | 80 nM | 0.1 nM | 0.4 nM | 76% | 55% | 79% | 0.29 nM | 100 nM | 1.64 nM | 67% | 0.86 nM | 70% | 80% | 90 nM | 0.3 nM | IC50, cell viability, MCF7 cells (PRLR 3X) [1]: 82 nM; IC50, cell viability, T47D cells (PRLR 12X) [1]: 1.3 nM; IC50, cell viability, T47D/ErbB2 cells (PRLR 12X) [1]: 2.4 nM; IC50, cell viability, 293/PRLR cells (PRLR 18X) [5]: 0.43 nM; % Kill, 293/PRLR cells [6]: 95%; IC50, cell viability, 293/PRLR cells [6]: 0.28 nM; IC50, cell viability, PC3/PRLR cells (PRLR 13X) [8]: 0.68 nM; IC50, cell viability, MCF7/PRLR cells (PRLR 55X) [9]: 0.33 nM; IC50, cell viability, MCF/PRLR + ErbB2 cells (PRLR 55X) [9]: 0.33 nM; IC50, cell viability, NCI-N87/PRLR cells (PRLR 6X) [9]: 2.9 nM
2 | B2 |  |  |  |  |  |  |  |  |  |  |  |  |  |  |  |  |  |  |  |  | IC50, block of STAT5 reporter activation by 5 nM PRL in HEK293/hPRLR/STAT5-Luc cells [10]: 0.022 nM; binding result [11]: no binding
3 | B3 |  |  |  |  |  |  |  |  |  |  |  |  |  |  |  |  |  |  |  |  | IC50, block of STAT5 reporter activation by 5 nM PRL in HEK293/hPRLR/STAT5-Luc cells [10]: 8 nM; binding result [11]: no binding
4 | B4 | 100% | 3 nM |  |  |  |  |  |  | 85% | 57% | 74% | 0.65 nM | 120 nM | 4.19 nM | 64% | 0.92 nM | 70% | 80% | 250 nM | 0.3 nM | IC50, cell viability, T47D cells, + 15 nM PRL [12]: 2 nM; IC50, cell viability, T47D cells, without PRL [12]: 1 nM
5 | B5 | 100% | 2 nM | 72% | 83% | 79% | 90 nM | 0.2 nM | 0.5 nM | 77% | 77% | 71% | 0.19 nM | 100 nM | 1.34 nM | 83% | 0.43 nM | 70% | 80% | 70 nM | 0.2 nM | % Kill, 293/PRLR cells [6]: 95%; IC50, cell viability, 293/PRLR cells [6]: 0.1 nM; IC50, cell viability, T47D cells, + 15 nM PRL [12]: 3 nM; IC50, cell viability, T47D cells, without PRL [12]: 1 nM
